In article PMC4409929 (Cell, 2015):
Substitutions are numbered along the chain they refer to. Names and notes keep the numbering of the source. Where two headings read alike, the source gives them in different places. One block for each molecule: values may come before it. Where no end group is shown, it is not given here. The star is where a group is joined. 5FAM = O=C1OC2(c3ccc(O)cc3Oc3cc(O)ccc32)c2ccc(C(=O)*)cc21

T1: TcEccC(cyto), cytoplasmic portion of EccC from Thermomonospora curvata (Thermomonospora curvata, UniProt D1A4G7 199-1315)
T1 sequence (looked up): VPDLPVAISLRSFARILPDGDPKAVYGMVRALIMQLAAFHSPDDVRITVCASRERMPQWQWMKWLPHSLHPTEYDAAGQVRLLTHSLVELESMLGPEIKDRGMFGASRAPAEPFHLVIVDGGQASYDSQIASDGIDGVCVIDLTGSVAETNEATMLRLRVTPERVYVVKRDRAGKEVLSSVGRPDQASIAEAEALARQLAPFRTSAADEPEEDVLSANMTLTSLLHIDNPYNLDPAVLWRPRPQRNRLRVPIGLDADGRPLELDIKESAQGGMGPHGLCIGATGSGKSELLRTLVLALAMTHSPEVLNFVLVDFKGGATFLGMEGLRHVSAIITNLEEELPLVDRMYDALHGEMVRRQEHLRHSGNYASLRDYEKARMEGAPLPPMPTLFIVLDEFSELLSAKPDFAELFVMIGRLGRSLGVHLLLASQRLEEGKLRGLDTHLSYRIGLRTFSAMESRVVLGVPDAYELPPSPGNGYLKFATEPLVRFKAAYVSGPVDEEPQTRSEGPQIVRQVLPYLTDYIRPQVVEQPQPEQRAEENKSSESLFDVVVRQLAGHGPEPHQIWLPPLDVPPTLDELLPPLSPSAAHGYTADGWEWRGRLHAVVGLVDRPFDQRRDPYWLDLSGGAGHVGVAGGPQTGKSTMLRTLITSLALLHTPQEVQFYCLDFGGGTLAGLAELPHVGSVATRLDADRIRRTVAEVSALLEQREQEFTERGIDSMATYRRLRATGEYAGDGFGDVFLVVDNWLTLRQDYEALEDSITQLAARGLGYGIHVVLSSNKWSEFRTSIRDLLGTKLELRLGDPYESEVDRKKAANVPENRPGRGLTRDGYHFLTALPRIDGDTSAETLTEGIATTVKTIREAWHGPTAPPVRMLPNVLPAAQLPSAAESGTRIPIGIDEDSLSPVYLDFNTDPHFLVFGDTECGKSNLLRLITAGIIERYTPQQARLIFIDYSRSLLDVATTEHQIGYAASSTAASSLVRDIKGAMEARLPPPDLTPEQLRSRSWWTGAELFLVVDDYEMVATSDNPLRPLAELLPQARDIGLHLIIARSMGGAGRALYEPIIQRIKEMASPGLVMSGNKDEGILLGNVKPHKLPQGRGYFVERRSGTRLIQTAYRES

B1: TcEsxB, EsxB of Thermomonospora curvata (natural protein, UniProt D1A4H0 1-104, looked up)
chain: MAPQSAVDRAAMAQAAQDIEQSANAIRGMQNQLASAKDQLRSHWEGDASMAFEAVFNRFNEDFSRVLKALDGMHESLVQTRITYEAREEAAQQSVNRVQALLNG
B2: TcEsxAB heterodimer (complex, Thermomonospora curvata)
chain 1: MSDYTRANFGGLSEGEAQFSMTARALLDELTDLEGKLRAKLDRWDGDAQAAYWNYQKEWDAAAKDMQNVVAQLGVAIREAHDNYQAAERANTSIWAG
chain 2: B1 chain
B3: TcEsxA, EsxA of Thermomonospora curvata (natural protein, UniProt D1A4H1 1-97, looked up)
chain: B2 chain 1
B4: TcEccC(cyto,R543A) (domain or fragment, Thermomonospora curvata, UniProt D1A4G7 199-1315, looked up)
chain: T1 sequence (looked up) with R345A

Legend:
GbEssCb = GbEssCb (Geobacillus thermodenitrificans, UniProt A4IKE7); details: ATP bound in both ATPase domains
[1] = target: the molecule itself
[2] = target: T1, TcEccC(cyto), cytoplasmic portion of …
TcEccC(cyto,R543A) = target: B4; test: cell-based or functional assay
[3] = target: T1, TcEccC(cyto), cytoplasmic portion of …; test: fluorescence polarisation
[4] = target: B1
cross-linking = target: the molecule itself; test: cross-linking
[5] = target: T1, TcEccC(cyto), cytoplasmic portion of …; test: fluorescence polarisation; remark: listed apart in the source

GbEssCb, sequence (A4IKE7 921-1479): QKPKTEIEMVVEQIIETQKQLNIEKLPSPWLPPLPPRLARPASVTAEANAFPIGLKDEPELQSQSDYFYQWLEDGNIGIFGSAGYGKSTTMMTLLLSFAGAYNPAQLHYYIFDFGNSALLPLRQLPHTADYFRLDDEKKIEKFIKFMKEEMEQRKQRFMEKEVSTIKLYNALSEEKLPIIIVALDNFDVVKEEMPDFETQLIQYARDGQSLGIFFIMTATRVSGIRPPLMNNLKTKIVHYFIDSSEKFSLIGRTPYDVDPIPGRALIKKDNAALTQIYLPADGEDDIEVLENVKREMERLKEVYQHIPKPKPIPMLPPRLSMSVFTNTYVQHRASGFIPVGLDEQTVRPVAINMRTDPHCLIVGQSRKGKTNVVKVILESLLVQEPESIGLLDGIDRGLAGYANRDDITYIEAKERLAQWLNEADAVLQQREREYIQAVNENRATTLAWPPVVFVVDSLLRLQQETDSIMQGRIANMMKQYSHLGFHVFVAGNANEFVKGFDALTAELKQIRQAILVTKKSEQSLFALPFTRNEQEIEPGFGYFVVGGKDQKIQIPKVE

Molecule: Nc1ncnc2c1ncn2[C@@H]1O[C@H](COP(=O)(O)OP(=O)(O)OP(=O)(O)O)[C@@H](O)[C@H]1O [ATP]
X-ray crystal structure (GbEssCb): has a very similar structure, with both domains bound to ATP

Molecule: B1
stoichiometry N [1]: 2
Kd [2]: ~10 µM
ATPase activity of TcEccC(cyto,R543A) with added TcEsxB (0-10 μM) (TcEccC(cyto,R543A)): 5 fold

Molecule: B2
binding result [3]: binds

Molecule: B3
stoichiometry N [4]: 1

Molecule: B4
binding result (cross-linking): binds

binding result [5]: binds
Molecule: 5FAM-VNRVQALLNG [fluorescently labeled signal sequence peptide 5-FAM-VNRVQALLNG]
